Patent US20260049140A1 (JANUX THERAPEUTICS, published 2026)
Ends that are not written are not given here.

Assays:
Experiment in all cases: competition ELISA, peptide titrated vs TCE binding to captured CD3
TCE-15 = target: T1, TCE-15
T1 construct: anti-CD3 scFv W112A; anti-TROP2 Fab wt; also called 3087

TCE-24 = target: T2, TCE-24
T2 construct: anti-CD3 scFv W238A; anti-TROP2 Fab wt; also called 3096

TCE-19 = target: T3, TCE-19
T3 construct: anti-CD3 scFv W233A; anti-TROP2 Fab wt; also called 3091

TCE-30 = target: T4, TCE-30
T4 construct: anti-CD3 scFv H101A; anti-TROP2 Fab F108A

TCE-33 = target: T5, TCE-33
T5 construct: anti-CD3 scFv with P41S; E227D set of mutations; anti-TROP2 Fab F108A

TCE-32 = target: T6, TCE-32
T6 construct: anti-CD3 scFv F240A; anti-TROP2 Fab F108A

TCE-29 = target: T7, TCE-29
T7 construct: anti-CD3 scFv wt; anti-TROP2 Fab F108A

Measured: IC50

GSACLGPEWEVCPY (cysteine pairing not given here; also: biotinylated when captured in ELISA, also called 1596) [Peptide-11]
> 100 µM: TCE-15 | TCE-24 | TCE-19

YLCGPDTDETLACY (cysteine pairing not given here; also: biotinylated, site not given here) [Peptide-13]
> 100 µM: TCE-30 | TCE-33 | TCE-32 | TCE-29
